Assays:
[1] = target: T1, recombinant soluble human CD154 (extracellular portion of human CD154 fused to mouse Cκ), trimeric (human; mouse, UniProt P29965 47-261); assay: cell-free competitive binding assay: CD154-κ immobilised, biotinylated soluble human CD40, Eu-streptavidin fluorimetry
T1 construct: extracellular domain; also called CD154-κ; soluble recombinant CD154; not shown: mouse immunoglobulin kappa constant region (Cκ)
T1 sequence (looked up): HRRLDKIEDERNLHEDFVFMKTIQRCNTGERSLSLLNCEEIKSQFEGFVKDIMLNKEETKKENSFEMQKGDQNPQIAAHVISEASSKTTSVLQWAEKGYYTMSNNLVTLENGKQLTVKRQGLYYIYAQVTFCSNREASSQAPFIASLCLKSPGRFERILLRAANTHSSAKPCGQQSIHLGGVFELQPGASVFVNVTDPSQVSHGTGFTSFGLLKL
Procedure: The ability to inhibit the binding of CD154 to CD40 is tested in a cell-free competitive binding assay. Recombinant soluble human CD154 (i.e., the extracellular portion of human CD154 fused to mouse Cκ) is immobilized on microtiter plates and the plates incubated, in the presence or absence of a putative inhibitor, with biotinylated recombinant soluble human CD40. The fraction of CD40 bound to CD154 is fluorimetrically determined using Eu-labelled streptavidin as the detection reagent.

[2] = target: T1, recombinant soluble human CD154 …; assay: cell-based or functional assay
[3] = target: T1, recombinant soluble human CD154 …; assay: SPR (BIAcore), ABI793 immobilised, CD154-κ 10 to 160 nM in solution, n = 3
Procedure: The association and dissociation rate constant for the binding of recombinant human CD154 to ABI793 is determined by BIAcore analysis. ABI793 is immobilized, and binding of soluble recombinant CD154 (CD154-κ) in a concentration range from 10 to 160 nM is measured by surface plasmon resonance. The chosen format represents a monovalent interaction. Data analysis is performed using the BIA evaluation software.

IC50 [1]: 0.075 µg/mL | Inhibition of CD154/IL-4 driven B Cell Proliferation (3H-TdR uptake), IC50 [2]: 0.073 µg/mL | Kd [3]: 23.1 nM | koff [3]: 0.000538 s⁻¹ | kon [3]: 23400 M⁻¹ s⁻¹
B1: ABI793 antibody (human anti-human CD154 monoclonal antibody from hybridoma # 207.2) (antibody, V domains shown)
VH: QVQLVQSGAEVQKPGSSVKVSCKASGGTFSNFAFNWVRQVPGQGLEWMGRILPSLDIASYAQKFQDRVTITADKSTSTAYMELSSLRSEDTAMYYCAREVDGGGFDYWGQGTLVTVSS
VL: DIQMTQSPSSLSASVGDRVTITCRASQGISSWLAWYQQKPEKAPKSLIYAASSLQSGVPSRFSGSGSGTDFTLTISSLQPEDFATYYCQQYNSYPFTFGGGTKVEIK
notes: FTC-labelled in part of the flow cytometry experiments; also called Antibody of the Invention
